T1: fibrinogen (UniProt P02671-2 20-644; P02675 31-491; P02679-2 27-437)
T1 construct: fibrinogen alpha chain; fibrinogen beta chain; fibrinogen gamma chain; Named only as fibrinogen; also called Fg
T1 sequence (looked up) 1: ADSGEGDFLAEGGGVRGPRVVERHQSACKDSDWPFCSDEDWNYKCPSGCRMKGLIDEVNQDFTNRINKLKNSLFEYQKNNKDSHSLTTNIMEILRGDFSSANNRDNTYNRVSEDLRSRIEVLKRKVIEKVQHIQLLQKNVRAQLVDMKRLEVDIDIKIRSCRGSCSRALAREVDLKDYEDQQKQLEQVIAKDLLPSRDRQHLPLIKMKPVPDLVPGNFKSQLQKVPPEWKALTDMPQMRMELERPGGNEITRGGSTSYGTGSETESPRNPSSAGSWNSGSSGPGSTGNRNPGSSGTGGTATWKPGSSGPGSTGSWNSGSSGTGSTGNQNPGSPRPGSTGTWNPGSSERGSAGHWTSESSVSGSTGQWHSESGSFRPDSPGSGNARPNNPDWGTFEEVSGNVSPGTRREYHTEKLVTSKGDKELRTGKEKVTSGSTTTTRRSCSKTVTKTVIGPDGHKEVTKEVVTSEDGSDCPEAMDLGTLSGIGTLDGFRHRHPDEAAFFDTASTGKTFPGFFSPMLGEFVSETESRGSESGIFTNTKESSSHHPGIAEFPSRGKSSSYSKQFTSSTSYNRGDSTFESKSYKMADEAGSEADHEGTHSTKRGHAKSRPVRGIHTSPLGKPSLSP
T1 sequence (looked up) 2: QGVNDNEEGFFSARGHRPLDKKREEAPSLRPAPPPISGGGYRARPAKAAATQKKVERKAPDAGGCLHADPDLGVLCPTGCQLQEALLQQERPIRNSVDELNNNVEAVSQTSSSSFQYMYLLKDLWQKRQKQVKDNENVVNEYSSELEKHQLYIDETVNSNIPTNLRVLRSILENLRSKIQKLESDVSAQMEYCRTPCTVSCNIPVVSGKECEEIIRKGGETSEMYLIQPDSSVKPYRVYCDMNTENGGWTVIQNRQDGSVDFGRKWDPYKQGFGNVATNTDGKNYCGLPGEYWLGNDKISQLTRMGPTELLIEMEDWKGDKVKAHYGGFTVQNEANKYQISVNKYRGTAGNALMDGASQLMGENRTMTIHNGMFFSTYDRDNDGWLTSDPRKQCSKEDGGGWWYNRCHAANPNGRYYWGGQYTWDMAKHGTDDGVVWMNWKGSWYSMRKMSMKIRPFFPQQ
T1 sequence (looked up) 3: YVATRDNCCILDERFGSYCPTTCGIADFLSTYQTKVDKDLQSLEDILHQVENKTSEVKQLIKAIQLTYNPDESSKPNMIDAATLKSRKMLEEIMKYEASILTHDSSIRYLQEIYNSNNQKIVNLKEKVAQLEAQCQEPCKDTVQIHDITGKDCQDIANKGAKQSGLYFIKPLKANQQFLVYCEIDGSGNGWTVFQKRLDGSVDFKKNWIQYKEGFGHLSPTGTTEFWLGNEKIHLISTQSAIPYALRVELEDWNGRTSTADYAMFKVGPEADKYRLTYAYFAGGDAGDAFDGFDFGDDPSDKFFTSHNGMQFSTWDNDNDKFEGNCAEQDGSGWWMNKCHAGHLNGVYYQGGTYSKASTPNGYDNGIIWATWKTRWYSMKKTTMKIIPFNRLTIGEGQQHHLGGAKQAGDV

B1: Emp2 (central fragment of Emp) (domain or fragment)
chain: YKEINNRVNVATNNPASQQVDKHFVAKGPEVNRFITQNKVNHHFITTQTHYKKVITSYKSTHVHKHVNHAKDSINKHFIVKPSESPRYTHPSQSLIIKHHFAVPGYHAH
notes: primers EmpFor2UA (+322) and EmpRev2UA (+648) relative to ATG; limits worked out from these positions and count on the precursor; source: E. coli (TG1 transformants, plasmid pQemp2), purified (Ni-NTA in 8 M urea, solubilized by stepwise dialysis)
B2: Emp3 (C-terminal fragment of Emp) (domain or fragment)
chain: FAVPGYHAHKFVTPGHASIKINHFCVVPQINSFKVIPPYGHNSHRMHVPSFQNNTTATHQNAKVNKAYDYKYFYSYKVVKGVKKYFSFSQSNGYKIGKPSLNIKNVNYQYAVPSYSPTHYVPEFKGSLPAPRV
notes: primers EmpFor3UA (+622) and EmpRev3UA (+1024, holds the stop codon) relative to ATG; limits worked out from these positions and count on the precursor; source: E. coli (TG1 transformants, plasmid pQemp3), purified (Ni-NTA in 8 M urea, solubilized by stepwise dialysis)
B3: full-length Emp protein (extracellular matrix protein Emp of Staphylococcus aureus, without the signal peptide) (natural protein)
chain: SVTESVDKKFVVPESGINKIIPAYDEFKNSPKVNVSNLTDNKNFVASEDKLNKIADSSAASKIVDKNFVVPESKLGNIVPEYKEINNRVNVATNNPASQQVDKHFVAKGPEVNRFITQNKVNHHFITTQTHYKKVITSYKSTHVHKHVNHAKDSINKHFIVKPSESPRYTHPSQSLIIKHHFAVPGYHAHKFVTPGHASIKINHFCVVPQINSFKVIPPYGHNSHRMHVPSFQNNTTATHQNAKVNKAYDYKYFYSYKVVKGVKKYFSFSQSNGYKIGKPSLNIKNVNYQYAVPSYSPTHYVPEFKGSLPAPRV
notes: gene of 1,023 nucleotides; numbers count on: the protein without signal peptide and without His-tag; The vector (printed pQ30-UA, Qiagen) probably adds an N-terminal His6 (surmised); Primer EmpFor1UA starts at nt +76 (codon 26), which would give 315 residues against the printed 314; also called EmpFL; source: E. coli (TG1 transformants, plasmid pQemp), purified (Ni-NTA in 8 M urea, solubilized by …)
B4: Emp1+2 (combination of Emp1 and Emp2) (domain or fragment)
chain: ASVTESVDKKFVVPESGINKIIPAYDEFKNSPKVNVSNLTDNKNFVASEDKLNKIADSSAASKIVDKNFVVPESKLGNIVPEYKEINNRVNVATNNPASQQVDKHFVAKGPEVNRFITQNKVNHHFITTQTHYKKVITSYKSTHVHKHVNHAKDSINKHFIVKPSESPRYTHPSQSLIIKHHFAVPGYHAH
notes: limits worked out from these positions and count on the precursor; source: E. coli (TG1 transformants, plasmid pQemp1 + 2), purified (Ni-NTA in 8 M urea, solubilized by stepwise dialysis)
B5: Emp2+3 (combination of Emp2 and Emp3; N-truncated Emp) (domain or fragment)
chain: YKEINNRVNVATNNPASQQVDKHFVAKGPEVNRFITQNKVNHHFITTQTHYKKVITSYKSTHVHKHVNHAKDSINKHFIVKPSESPRYTHPSQSLIIKHHFAVPGYHAHKFVTPGHASIKINHFCVVPQINSFKVIPPYGHNSHRMHVPSFQNNTTATHQNAKVNKAYDYKYFYSYKVVKGVKKYFSFSQSNGYKIGKPSLNIKNVNYQYAVPSYSPTHYVPEFKGSLPAPRV
notes: limits worked out from these positions and count on the precursor; source: E. coli (TG1 transformants, plasmid pQemp2 + 3), purified (Ni-NTA in 8 M urea, solubilized by stepwise dialysis)

Assays:
[1] = molecular target: fibronectin (Homo sapiens) (UniProt P02751); test: SPR; details: cited from earlier work
Chain of fibronectin (Homo sapiens) (P02751 32-2477): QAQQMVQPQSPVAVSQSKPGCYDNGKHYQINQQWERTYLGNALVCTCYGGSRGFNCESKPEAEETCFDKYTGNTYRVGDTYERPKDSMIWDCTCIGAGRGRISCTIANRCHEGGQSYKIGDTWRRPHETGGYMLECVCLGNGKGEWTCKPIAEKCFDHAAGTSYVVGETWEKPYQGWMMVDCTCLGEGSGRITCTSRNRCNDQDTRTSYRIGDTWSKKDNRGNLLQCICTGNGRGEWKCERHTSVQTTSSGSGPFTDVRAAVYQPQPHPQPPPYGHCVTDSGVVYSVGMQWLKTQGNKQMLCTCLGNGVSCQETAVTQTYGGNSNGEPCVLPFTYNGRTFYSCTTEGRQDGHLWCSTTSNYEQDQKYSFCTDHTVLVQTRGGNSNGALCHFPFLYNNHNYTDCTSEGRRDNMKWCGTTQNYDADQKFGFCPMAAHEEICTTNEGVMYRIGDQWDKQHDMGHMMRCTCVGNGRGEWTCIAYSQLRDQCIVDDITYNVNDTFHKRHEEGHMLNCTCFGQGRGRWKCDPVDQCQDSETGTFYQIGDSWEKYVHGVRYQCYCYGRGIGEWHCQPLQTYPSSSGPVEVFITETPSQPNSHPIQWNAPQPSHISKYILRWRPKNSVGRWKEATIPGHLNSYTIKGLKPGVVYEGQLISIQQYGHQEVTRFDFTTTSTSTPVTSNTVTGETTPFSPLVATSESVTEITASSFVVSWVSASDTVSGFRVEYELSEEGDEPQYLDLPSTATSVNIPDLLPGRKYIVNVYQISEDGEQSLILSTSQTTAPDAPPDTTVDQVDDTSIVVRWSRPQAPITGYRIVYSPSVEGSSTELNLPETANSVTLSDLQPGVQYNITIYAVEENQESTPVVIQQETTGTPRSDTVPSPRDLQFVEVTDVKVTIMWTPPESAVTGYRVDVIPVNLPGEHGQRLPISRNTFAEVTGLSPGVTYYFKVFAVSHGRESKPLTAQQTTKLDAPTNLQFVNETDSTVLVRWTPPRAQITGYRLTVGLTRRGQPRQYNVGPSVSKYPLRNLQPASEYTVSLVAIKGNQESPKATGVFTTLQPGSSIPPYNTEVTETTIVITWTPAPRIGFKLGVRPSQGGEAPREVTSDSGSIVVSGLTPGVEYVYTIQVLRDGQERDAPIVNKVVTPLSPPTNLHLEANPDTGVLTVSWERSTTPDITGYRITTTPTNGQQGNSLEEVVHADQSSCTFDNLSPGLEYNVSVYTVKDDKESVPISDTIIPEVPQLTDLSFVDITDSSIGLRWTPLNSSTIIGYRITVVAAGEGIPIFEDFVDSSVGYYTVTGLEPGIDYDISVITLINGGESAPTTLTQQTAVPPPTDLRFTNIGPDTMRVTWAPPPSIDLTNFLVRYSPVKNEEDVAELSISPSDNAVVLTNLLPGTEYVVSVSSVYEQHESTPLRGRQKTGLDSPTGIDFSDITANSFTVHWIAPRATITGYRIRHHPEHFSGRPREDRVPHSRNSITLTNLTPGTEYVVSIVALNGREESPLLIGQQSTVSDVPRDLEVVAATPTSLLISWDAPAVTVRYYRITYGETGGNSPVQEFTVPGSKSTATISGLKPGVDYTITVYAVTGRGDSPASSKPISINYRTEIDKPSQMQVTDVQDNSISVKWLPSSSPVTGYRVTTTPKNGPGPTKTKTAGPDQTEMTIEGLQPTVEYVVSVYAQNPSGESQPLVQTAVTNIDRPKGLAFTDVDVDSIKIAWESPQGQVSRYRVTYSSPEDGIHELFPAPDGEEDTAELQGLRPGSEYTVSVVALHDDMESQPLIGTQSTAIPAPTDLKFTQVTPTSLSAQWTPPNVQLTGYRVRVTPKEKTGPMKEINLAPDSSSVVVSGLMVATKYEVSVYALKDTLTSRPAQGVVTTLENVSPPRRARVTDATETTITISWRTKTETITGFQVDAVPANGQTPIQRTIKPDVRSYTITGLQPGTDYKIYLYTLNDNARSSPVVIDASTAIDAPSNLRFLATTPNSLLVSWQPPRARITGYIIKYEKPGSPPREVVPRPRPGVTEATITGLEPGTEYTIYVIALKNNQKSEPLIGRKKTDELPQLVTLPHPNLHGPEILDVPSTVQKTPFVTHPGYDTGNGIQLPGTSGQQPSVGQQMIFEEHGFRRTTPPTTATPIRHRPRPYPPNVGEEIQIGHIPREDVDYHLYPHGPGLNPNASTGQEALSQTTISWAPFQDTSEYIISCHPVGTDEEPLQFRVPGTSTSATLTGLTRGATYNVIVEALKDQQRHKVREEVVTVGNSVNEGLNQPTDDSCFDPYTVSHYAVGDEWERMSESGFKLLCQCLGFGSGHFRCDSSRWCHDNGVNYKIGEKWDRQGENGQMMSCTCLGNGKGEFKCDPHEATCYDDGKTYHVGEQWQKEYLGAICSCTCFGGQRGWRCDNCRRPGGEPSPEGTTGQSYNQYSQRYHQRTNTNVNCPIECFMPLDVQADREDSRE

[2] = molecular target: fibrinogen (Homo sapiens) (UniProt P02671); test: SPR; details: cited from earlier work
[3] = molecular target: vitronectin (Homo sapiens) (UniProt P04004); test: SPR; details: cited from earlier work
Chain of vitronectin (Homo sapiens) (P04004 399-478): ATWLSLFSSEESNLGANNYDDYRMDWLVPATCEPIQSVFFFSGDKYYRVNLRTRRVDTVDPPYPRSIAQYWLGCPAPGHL

[4] = molecular target: vitronectin; test: ELISA; matrix component (0.25 ug/well in 0.1 M Na2CO3, overnight 4 C) immobilised on polystyrene plates; Emp forms 0-1.5 uM added for 1 h at RT, PBST washes; detected with polyclonal anti-Emp IgG and AP-conjugated anti-rabbit IgG; KD from steady-state curves, one-site binding model
Chain of vitronectin (P04004 20-478): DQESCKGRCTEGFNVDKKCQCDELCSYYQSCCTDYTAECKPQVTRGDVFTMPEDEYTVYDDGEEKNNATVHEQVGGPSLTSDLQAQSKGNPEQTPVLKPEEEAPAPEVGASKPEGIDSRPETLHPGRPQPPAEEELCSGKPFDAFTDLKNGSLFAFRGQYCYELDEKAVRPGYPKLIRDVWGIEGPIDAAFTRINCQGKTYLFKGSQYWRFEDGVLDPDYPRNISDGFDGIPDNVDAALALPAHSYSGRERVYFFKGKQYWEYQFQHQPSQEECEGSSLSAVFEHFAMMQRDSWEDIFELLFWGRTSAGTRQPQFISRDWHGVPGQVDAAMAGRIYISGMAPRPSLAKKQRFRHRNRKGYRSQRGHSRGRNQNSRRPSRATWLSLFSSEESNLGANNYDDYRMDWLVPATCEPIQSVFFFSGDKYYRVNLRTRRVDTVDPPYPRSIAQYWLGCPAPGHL

[5] = molecular target: T2, collagen I (UniProt P02452 162-1218; P08123 80-1119); test: as above; details: both partners purified
T2 construct: collagen alpha-1(I) chain; collagen alpha-2(I) chain; Named only as collagen I; also called Cn I; Cn l
T2 sequence (P02452 162-1218, chain 1 of 2): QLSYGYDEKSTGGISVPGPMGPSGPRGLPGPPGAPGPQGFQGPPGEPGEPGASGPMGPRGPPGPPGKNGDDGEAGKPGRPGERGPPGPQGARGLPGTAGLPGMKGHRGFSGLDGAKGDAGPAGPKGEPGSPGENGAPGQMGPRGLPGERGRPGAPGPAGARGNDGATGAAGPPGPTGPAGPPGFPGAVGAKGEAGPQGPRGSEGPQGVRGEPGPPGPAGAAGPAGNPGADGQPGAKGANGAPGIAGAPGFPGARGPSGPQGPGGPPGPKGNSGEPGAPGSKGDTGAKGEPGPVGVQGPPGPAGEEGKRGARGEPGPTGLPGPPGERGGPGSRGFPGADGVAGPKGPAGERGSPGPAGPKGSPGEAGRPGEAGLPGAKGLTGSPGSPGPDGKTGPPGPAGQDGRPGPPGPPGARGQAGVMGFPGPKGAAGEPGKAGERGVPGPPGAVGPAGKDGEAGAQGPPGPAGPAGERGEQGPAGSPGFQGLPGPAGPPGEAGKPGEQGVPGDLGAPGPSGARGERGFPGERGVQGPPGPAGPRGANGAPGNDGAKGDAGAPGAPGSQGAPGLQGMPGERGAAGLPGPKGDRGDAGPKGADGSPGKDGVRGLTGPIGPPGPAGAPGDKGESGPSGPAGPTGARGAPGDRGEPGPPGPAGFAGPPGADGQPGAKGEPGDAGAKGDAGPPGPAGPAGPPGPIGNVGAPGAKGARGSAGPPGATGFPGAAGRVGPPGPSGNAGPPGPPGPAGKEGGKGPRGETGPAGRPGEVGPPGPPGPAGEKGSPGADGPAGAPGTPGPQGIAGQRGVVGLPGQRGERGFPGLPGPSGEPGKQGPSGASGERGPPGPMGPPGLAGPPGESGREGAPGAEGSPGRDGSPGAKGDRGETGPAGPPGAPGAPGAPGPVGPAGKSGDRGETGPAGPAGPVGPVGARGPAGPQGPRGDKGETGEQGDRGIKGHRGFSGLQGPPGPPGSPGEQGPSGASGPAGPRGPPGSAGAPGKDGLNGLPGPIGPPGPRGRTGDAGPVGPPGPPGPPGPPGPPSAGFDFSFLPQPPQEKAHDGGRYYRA
T2 sequence (P08123 80-1119, chain 2 of 2): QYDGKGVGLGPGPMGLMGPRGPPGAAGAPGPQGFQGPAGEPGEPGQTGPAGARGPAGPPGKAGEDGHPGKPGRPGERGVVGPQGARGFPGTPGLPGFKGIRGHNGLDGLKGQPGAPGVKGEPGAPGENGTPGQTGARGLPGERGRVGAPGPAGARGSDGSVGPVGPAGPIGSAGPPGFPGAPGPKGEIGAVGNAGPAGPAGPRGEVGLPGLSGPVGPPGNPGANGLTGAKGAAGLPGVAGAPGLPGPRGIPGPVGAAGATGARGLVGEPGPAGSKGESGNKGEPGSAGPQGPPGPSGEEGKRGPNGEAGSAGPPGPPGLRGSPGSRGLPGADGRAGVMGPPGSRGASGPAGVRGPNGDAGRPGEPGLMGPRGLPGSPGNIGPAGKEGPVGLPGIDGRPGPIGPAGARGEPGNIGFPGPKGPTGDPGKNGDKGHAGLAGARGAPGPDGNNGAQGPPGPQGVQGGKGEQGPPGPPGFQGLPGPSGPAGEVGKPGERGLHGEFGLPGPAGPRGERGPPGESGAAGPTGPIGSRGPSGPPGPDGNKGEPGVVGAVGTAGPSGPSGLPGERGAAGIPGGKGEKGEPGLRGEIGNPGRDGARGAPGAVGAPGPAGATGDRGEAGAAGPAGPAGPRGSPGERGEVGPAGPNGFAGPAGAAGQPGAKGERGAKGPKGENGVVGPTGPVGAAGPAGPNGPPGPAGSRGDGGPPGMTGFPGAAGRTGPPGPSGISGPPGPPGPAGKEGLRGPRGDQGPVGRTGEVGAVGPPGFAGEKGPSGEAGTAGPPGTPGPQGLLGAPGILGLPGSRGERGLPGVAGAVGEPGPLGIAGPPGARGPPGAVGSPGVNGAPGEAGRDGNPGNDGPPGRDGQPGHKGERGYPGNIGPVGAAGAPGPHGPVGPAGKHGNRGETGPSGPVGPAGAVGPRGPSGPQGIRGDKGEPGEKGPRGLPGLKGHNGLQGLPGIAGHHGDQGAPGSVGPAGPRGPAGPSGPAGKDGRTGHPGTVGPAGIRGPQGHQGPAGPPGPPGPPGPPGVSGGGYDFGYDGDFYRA

[6] = molecular target: T1, fibrinogen; test: as above; details: both partners purified
[7] = molecular target: fibronectin (UniProt P02751 32-2477); test: as above; details: both partners purified
Chain of fibronectin (P02751 32-2477): as the sequence (P02751 32-2477) above

| Molecule | Kd [1] [nM] | Kd [2] [nM] | Kd [3] [nM] | Kd [4] [nM] | Kd [5] [nM] | Kd [6] [nM] | Kd [7] [nM] |
| --- | --- | --- | --- | --- | --- | --- | --- |
| Emp (from UniProt Q7A6P4) | 21 | 91 | 0.122 |  |  |  |  |
| B1 |  |  |  | 18 | 13 ± 6 | 9 ± 2.6 | 8 ± 3 |
| B2 |  |  |  | 449 | 32 ± 7 | 756 ± 224 | 311 ± 79 |
| B3 |  |  |  | 34 | 27 ± 5 | 70 ± 1 | 43 ± 11 |
| B4 |  |  |  | 9 | 31 ± 5 | 14 ± 3 | 3 ± 2 |
| B5 |  |  |  | 200 | 207 ± 44 | 556 ± 115 | 404 ± 95 |

Reference: article PMC5651841, “The Staphylococcus aureus extracellular matrix protein (Emp) has a fibrous structure and binds to different extracellular matrices” (Scientific Reports, 2017)
